In article PMC9764456 (Cell reports, 2022):

Biological target: the molecule itself
Assay: negative stain electron microscopy

B1: peroxiredoxin PRDX2 (enzyme, human (endogenous in RBCs), UniProt P32119 1-198, looked up)
chain: MASGNARIGKPAPDFKATAVVDGAFKEVKLSDYKGKYVVLFFYPLDFTFVCPTEIIAFSNRAEDFRKLGCEVLGVSVDSQFTHLAWINTPRKEGGLGPLNIPLLADVTRRLSEDYGVLKTDEGIAYRGLFIIDGKGVLRQITVNDLPVGRSVDEALRLVQAFQYTDEHGEVCPAGWKPGSDTIKPNVDDSKEYFSKHN
stoichiometry N: 10
